B1: Phototropin-1 (Arabidopsis thaliana (Mouse-ear cress)), O48963 (parent)
chain: MEPTEKPSTKPSSRTLPRDTRGSLEVFNPSTQLTRPDNPVFRPEPPAWQNLSDPRGTSPQPRPQQEPAPSNPVRSDQEIAVTTSWMALKDPSPETISKKTITAEKPQKSAVAAEQRAAEWGLVLKTDTKTGKPQGVGVRNSGGTENDPNGKKTTSQRNSQNSCRSSGEMSDGDVPGGRSGIPRVSEDLKDALSTFQQTFVVSDATKPDYPIMYASAGFFNMTGYTSKEVVGRNCRFLQGSGTDADELAKIRETLAAGNNYCGRILNYKKDGTSFWNLLTIAPIKDESGKVLKFIGMQVEVSKHTEGAKEKALRPNGLPESLIRYDARQKDMATNSVTELVEAVKRPRALSESTNLHPFMTKSESDELPKKPARRMSENVVPSGRRNSGGGRRNSMQRINEIPEKKSRKSSLSFMGIKKKSESLDESIDDGFIEYGEEDDEISDRDERPESVDDKVRQKEMRKGIDLATTLERIEKNFVITDPRLPDNPIIFASDSFLELTEYSREEILGRNCRFLQGPETDLTTVKKIRNAIDNQTEVTVQLINYTKSGKKFWNIFHLQPMRDQKGEVQYFIGVQLDGSKHVEPVRNVIEETAVKEGEDLVKKTAVNIDEAVRELPDANMTPEDLWANHSKVVHCKPHRKDSPPWIAIQKVLESGEPIGLKHFKPVKPLGSGDTGSVHLVELVGTDQLFAMKAMDKAVMLNRNKVHRARAEREILDLLDHPFLPALYASFQTKTHICLITDYYPGGELFMLLDRQPRKVLKEDAVRFYAAQVVVALEYLHCQGIIYRDLKPENVLIQGNGDISLSDFDLSCLTSCKPQLLIPSIDEKKKKKQQKSQQTPIFMAEPMRASNSFVGTEEYIAPEIISGAGHTSAVDWWALGILMYEMLYGYTPFRGKTRQKTFTNVLQKDLKFPASIPASLQVKQLIFRLLQRDPKKRLGCFEGANEVKQHSFFKGINWALIRCTNPPELETPIFSGEAENGEKVVDPELEDLQTNVF
partner: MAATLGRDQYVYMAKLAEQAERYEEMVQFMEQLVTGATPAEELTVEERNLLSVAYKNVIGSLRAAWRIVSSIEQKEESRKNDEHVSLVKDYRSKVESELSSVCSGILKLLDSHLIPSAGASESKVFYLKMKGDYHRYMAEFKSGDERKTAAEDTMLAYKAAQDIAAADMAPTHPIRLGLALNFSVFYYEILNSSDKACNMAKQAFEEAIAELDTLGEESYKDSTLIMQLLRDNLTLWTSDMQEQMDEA
B2: Phototropin-1 (Arabidopsis thaliana (Mouse-ear cress)), O48963 (parent)
chain: B1 chain
partner: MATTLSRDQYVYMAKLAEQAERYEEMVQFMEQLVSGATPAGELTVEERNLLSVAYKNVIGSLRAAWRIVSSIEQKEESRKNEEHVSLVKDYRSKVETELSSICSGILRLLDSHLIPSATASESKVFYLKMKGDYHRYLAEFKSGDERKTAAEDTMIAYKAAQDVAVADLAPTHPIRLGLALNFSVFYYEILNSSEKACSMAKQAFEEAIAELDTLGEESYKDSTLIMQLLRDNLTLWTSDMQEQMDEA

Variants of: B1
Settings: with 14336_arath GRF6, P48349

effect of a mutation on the interaction	Variant
disrupting interaction	S410A

Variants of: B1
Settings: with 14336_arath GRF6, P48349
Remark: another data set of the same source

effect of a mutation on the interaction	Variant
decreasing interaction	S376A

Variants of: B1
Settings: with 14336_arath GRF6, P48349
Remark: another data set of the same source

effect of a mutation on the interaction	Variant
disrupting interaction	S376A
disrupting interaction	S350A

Variants of: B1
Settings: with 14336_arath GRF6, P48349
Remark: another data set of the same source

effect of a mutation on the interaction	Variant
decreasing interaction	S350A

Variants of: B2
Settings: with 14338_arath GRF8, P48348

effect of a mutation on the interaction	Variant
disrupting interaction	S410A
disrupting interaction	S350A
disrupting interaction	S376A

Reference: IntAct's records for PubMed 19524572
